This passage reports Km results from publication PMC5725599, “Insights into substrate binding of ferulic acid esterases by arabinose and methyl hydroxycinnamate esters and molecular docking” (Scientific Reports, 2017).

Substrate in data set [1]: COC(=O)/C=C/c1ccc(O)c(O)c1
Kind of data set: HPLC of released free acid, Michaelis-Menten nonlinear fit. In kind it is biochemical, Aspergillus niger. To be noted: 100 mM MOPS-NaOH pH 6.0, 45 °C, 30 min, substrate stock in DMSO. An excerpt: (§1) HPLC of released free acid, Michaelis-Menten nonlinear fit on AnFaeA

Substrate in data set [2]: COC(=O)/C=C/c1ccc(O)c(OC)c1
The data set is described as above. In kind it is biochemical, Aspergillus niger. The settings on record: 100 mM MOPS-NaOH pH 6.0, 45 °C, 30 min, substrate stock in DMSO.
Description: as §1

B1: AnFaeA (Aspergillus niger) (protein)
chain: ASTQGISEDLYNRLVEMATISQAAYADLCNIPSTIIKGEKIYNAQTDINGWILRDDTSKEIITVFRGTGSDTNLQLDTNYTLTPFDTLPQCNDCEVHGGYYIGWISVQDQVESLVKQQASQYPDYALTVTGHSLGASMAALTAAQLSATYDNVRLYTFGEPRSGNQAFASYMNDAFQVSSPETTQYFRVTHSNDGIPNLPPADEGYAHGGVEYWSVDPYSAQNTFVCTGDEVQCCEAQGGQGVNDAHTTYFGMTSGACTW
notes: recombinant, expressed in Pichia pastoris as described previously
As for B1, the Km in data set [1] is 0.87 ± 0.17 mM; in data set [2], 1.42 ± 0.26 mM.
